Here are results for five substances from patent publication US20090286723A1.

Experiment [1] concerns the target neuropeptide Y2 receptor (SK-N-BE cell membranes) (UniProt P49146). Briefly: [125I]-human PYY displacement, SK-N-BE membranes.
In experiment [2] the target is calcitonin receptor. Briefly: cell-based or functional assay.
Experiment [3] deals with calcitonin receptor. Nature of the experiment: calcitonin receptor binding assay.

neuropeptide Y2 receptor (SK-N-BE cell membranes), sequence (P49146 whole entry): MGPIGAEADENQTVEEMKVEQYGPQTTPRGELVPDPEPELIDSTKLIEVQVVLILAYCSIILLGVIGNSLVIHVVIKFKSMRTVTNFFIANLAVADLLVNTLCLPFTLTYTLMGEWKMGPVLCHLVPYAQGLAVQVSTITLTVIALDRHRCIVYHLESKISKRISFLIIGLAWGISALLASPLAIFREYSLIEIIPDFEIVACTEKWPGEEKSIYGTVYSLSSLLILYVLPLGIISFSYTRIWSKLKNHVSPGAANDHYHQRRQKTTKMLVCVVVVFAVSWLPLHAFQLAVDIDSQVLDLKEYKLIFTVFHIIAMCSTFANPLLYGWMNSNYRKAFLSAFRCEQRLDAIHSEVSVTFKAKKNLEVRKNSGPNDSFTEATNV

In the case of “[#Cys-Gly-Gly-PYY (3-36), amide] [Asp(#)-Pro-Pro-Pro-Pro-Pro-Pro-PYY (3-36), amide] (peptide; modification not given)”, the Receptor Binding in experiment [1] is 0.8.
In the case of “[#Cys-Gly-Gly-PYY (3-36), amide] [Asp(#)-miniPEG3-Gly-PYY (3-36), amide] (peptide; modification not given)”, in experiment [1], the Receptor Binding was found to be 0.8.
“[#NH-Cys-(bAla)-PYY-(3-36), amide] [#Suc-(bAla)-PYY-(3-36), amide] (peptide)”: the Receptor Activation: CT cyclase in the experiment with calcitonin receptor [2] amounted to 2270. Moreover, in the experiment with calcitonin receptor [3], the Receptor Binding was found to be 643.
On to “[Ac-alpha-MSH-bAla-bAla-PYY-(3-36), amide] (peptide; modification not given)”, for which the Receptor Binding in experiment [1] was 0.2.
The substance “[Asp(#)-miniPEG-Gly-PYY (3-36), amide] [#Cys-Gly-Gly-PYY (3-36), amide] (peptide; modification not given)” yielded a Receptor Binding in experiment [1] of 0.8.
